In patent US20200399382A1 (ARGENX, published 2020):
One block for each binder: values may come before it.

Assays:
[1] = target: T1, mouse IL-4Rα (SPR target of Example 2) (mouse, UniProt P16382 26-233, limits assumed); test: SPR, mAb (0-20 µg/mL) over immobilised target; immobilized IL-4Rα target; IL-4Rα mAb in solution
T1 construct: also called immobilized target IL-4Rα
T1 sequence (looked up): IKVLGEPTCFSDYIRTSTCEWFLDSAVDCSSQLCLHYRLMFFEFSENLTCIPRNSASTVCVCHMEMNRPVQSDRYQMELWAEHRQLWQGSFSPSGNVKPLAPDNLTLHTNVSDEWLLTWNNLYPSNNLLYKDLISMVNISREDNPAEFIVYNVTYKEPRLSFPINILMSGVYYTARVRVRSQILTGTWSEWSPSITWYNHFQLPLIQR

[2] = target: T2, mouse IL-4Rα on cells (HT-2 cells, purified mouse B cells) (mouse, UniProt P16382 26-810); test: cell-based or functional assay
T2 sequence (looked up): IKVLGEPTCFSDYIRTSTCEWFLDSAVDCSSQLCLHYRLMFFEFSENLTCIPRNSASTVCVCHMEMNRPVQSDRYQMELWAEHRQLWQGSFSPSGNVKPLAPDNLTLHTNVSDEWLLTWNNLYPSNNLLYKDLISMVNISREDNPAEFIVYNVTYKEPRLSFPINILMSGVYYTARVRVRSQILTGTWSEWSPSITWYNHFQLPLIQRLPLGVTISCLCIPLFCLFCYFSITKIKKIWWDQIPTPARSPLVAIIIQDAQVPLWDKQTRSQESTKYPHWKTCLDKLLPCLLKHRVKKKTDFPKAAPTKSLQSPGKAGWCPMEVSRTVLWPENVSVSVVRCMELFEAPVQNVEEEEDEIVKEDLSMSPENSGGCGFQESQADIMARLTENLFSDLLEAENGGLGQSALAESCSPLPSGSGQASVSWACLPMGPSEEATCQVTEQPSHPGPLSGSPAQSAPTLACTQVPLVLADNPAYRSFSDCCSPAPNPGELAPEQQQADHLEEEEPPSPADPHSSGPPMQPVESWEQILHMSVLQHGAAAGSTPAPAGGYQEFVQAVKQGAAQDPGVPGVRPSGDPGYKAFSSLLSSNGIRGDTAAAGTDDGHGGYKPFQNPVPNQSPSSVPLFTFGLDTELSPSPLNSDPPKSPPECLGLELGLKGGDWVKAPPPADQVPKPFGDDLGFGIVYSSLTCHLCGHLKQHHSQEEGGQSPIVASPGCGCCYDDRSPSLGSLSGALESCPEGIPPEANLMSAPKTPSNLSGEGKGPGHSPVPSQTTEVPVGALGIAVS

mouse IL-5 [3] = target: T3, mouse IL-5 (mouse, UniProt P04401 21-133); test: SPR sandwich: IL-4Rα-Fc coated, anti-IL-4Rα Ab as 1st injection, IL-5 as 2nd injection
T3 construct: also called mIL-5; recombinant mouse IL-5 (R&D Systems)
T3 sequence (looked up): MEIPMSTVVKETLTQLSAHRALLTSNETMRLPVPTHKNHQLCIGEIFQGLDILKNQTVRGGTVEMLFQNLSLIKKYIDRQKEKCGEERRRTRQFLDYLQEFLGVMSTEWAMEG
Protocol: (§1) The experiment was also performed in reverse order and confirmed the bispecific nature of the molecule as depicted in FIG. 13B.

mouse IL-5 [4] = target: T3, mouse IL-5; test: SPR, IL-5 coated, antibody as 1st injection
Protocol: as §1

[5] = target: T4, recombinant mouse IL-4Rα-Fc (mouse, UniProt P16382 26-233); test: SPR sandwich: IL-5 coated, bispecific as 1st injection, IL-4Rα-Fc as 2nd injection
T4 construct: Bought reagent; also called coated IL-4Rα; injected IL-4Rα; not shown: Fc part
T4 sequence (looked up): T1 sequence (looked up)
Protocol: as §1

mouse IL-5 [6] = target: T3, mouse IL-5; test: SPR, mAb (0-20 µg/mL) over immobilised target; immobilized IL-5 target; IL-5 mAb in solution
[7] = target: T4, recombinant mouse IL-4Rα-Fc; test: SPR, IL-4Rα-Fc coated, antibody as 1st injection
Protocol: as §1

mouse IL-5 [8] = target: T3, mouse IL-5; test: cell-based or functional assay
mouse IL-5 [9] = target: T3, mouse IL-5; test: cell-based or functional assay; remark: listed apart in the source

Kd [1]: 0.08 nM | EC50, inhibition of mouse IL-4-induced proliferation of HT-2 cells [2]: 0.2 nM | binding result (mouse IL-5 [3]): no binding
B1: m4RMP36B7 IL-4Rα monospecific antibody (mouse IgG2a) (antibody, V domains shown)
VH: EVQLVESGGGLVQPGGSLRVSCAASGFTFSSYYMAWVRQAPGKGLEWVSHIHAGGSLTQYADSVKGRFTISRDNAKSTLYLQMNSLKPEDTALYYCVRIYGDATSYDYWGQGTQVSVSS
VL: HSAVTQPPSVSGSPGKTVTISCAGTSSDIGGYNYVSWYQQFPGTAPKLLIYEVNKRASGIPDRFSGSKSGNTASLSISGLQSEDEADYYCASYRSNNNIVFGGGTHLTVL
notes: also called IL-4Rα mAb; IL-4Rα monospecific Ab

binding result (mouse IL-5 [4]): binds | binding result [5]: binds
B2: IL-4Rα/IL-5 bispecific antibody (knob-into-hole, mouse IgG2a; 4RMP36B7 arm and 5MP95G7 arm) (bispecific antibody, V domains shown)
VH 1: B1 VH
VL 1: B1 VL
VH 2: ELQVVESGGGLVQPGGSLRLSCAASGFTFSSYGMSWVRQAPGKGLEWVSTISRGGDSTSYADSVKGRFTISKDNAKNTLYLQMNSLEPEDTAVYYCANLGRLGFGRGQGTQVTVSS
VL 2: SYELTQPPSVSGSPGKTLTISCAGTSSDIGDWNYVSWFQQLPGTAPKLLISEVNKRASGIPDRFSGSKSGNTASLSISGLQSEDEADYYCTSYRSGNNWVFGGGTHLTVL
notes: Murine Fc: the 4RMP36B7 heavy chain carries T366S, L368A and Y407V in CH3, the 5MP95G7 heavy chain carries T366W; also called IL-4Rα/IL-5 bispecific Ab; bispecific Ab

Kd (mouse IL-5 [6]): 0.002 nM | binding result [7]: no binding | EC50 (nM), inhibition of mIL-5-induced (0.25 ng/mL) proliferation of TF-1 cells (mouse IL-5 [8]): 1.75 nM | EC50, inhibition of mouse IL-5-induced proliferation of TF-1 cells (mouse IL-5 [9]): 0.6 nM
B3: m5MP95G7 IL-5 monospecific antibody (mouse IgG2a) (antibody, V domains shown)
VH: B2 VH 2
VL: B2 VL 2
notes: also called IL-5 mAb; IL-5 monospecific Ab
